Measurements reported in the supplement of paper PMC11246515.
± gives the standard deviation of the averaged measurements.

Experiment: total protein half-life in vivo (active degradation + dilution); higher = more stable protein
[1] = E. coli NCM3722 delta-clpP delta-lon delta-hslV, growth: N-lim chemostat, doubling time 6 h
[2] = E. coli NCM3722 delta-clpP, growth: N-lim chemostat, doubling time 6 h
[3] = E. coli NCM3722 delta-hslV, growth: N-lim chemostat, doubling time 6 h
[4] = E. coli NCM3722 delta-lon, growth: N-lim chemostat, doubling time 6 h
[5] = E. coli NCM3722 delta-smpB, growth: N-lim chemostat, doubling time 6 h
[6] = wild type E. coli NCM3722, growth: C-lim chemostat, doubling time 3 h
[7] = wild type E. coli NCM3722, growth: C-lim chemostat, doubling time 6 h
[8] = wild type E. coli NCM3722, growth: C-lim chemostat, doubling time 12 h
[9] = wild type E. coli NCM3722, growth: N-lim chemostat, doubling time 12 h
[10] = wild type E. coli NCM3722, growth: P-lim chemostat, doubling time 6 h
[11] = wild type E. coli NCM3722, growth: P-lim chemostat, doubling time 12 h
[12] = wild type E. coli NCM3722, growth: N-lim chemostat, doubling time 6 h

MTNYSLRARMMILILAPTVLIGLLLSIFFVVHRYNDLQRQLEDAGASIIEPLAVSTEYGMSLQNRESIGQLISVLHRRHSDIVRAISVYDENNRLFVTSNFHLDPSSMQLGSNVPFPRQLTVTRDGDIMILRTPIISESYSPDESPSSDAKNSQNMLGYIALELDLKSVRLQQYKEIFISSVMMLFCIGIALIFGWRLMRDVTGPIRNMVNTVDRIRRGQLDSRVEGFMLGELDMLKNGINSMAMSLAAYHEEMQHNIDQATSDLRETLEQMEIQNVELDLAKKRAQEAARIKSEFLANMSHELRTPLNGVIGFTRLTLKTELTPTQRDHLNTIERSANNLLAIINDVLDFSKLEAGKLILESIPFPLRSTLDEVVTLLAHSSHDKGLELTLNIKSDVPDNVIGDPLRLQQIITNLVGNAIKFTENGNIDILVEKRALSNTKVQIEVQIRDTGIGIPERDQSRLFQAFRQADASISRRHGGTGLGLVITQKLVNEMGGDISFHSQPNRGSTFWFHINLDLNPNIIIEGPSTQCLAGKRLAYVEPNSAAAQCTLDILSETPLEVVYSPTFSALPPAHYDMMLLGIAVTFREPLTMQHERLAKAVSMTDFLMLALPCHAQVNAEKLKQDGIGACLLKPLTPTRLLPALTEFCHHKQNTLLPVTDESKLAMTVMAVDDNPANLKLIGALLEDMVQHVELCDSGHQAVERAKQMPFDLILMDIQMPDMDGIRACELIHQLPHQQQTPVIAVTAHAMAGQKEKLLGAGMSDYLAKPIEEERLHNLLLRYKPGSGISSRVVTPEVNEIVVNPNATLDWQLALRQAAGKTDLARDMLQMLLDFLPEVRNKVEEQLVGENPEGLVDLIHKLHGSCGYSGVPRMKNLCQLIEQQLRSGTKEEDLEPELLELLDEMDNVAREASKILG [P0AEC5]
total protein half-life in vivo [1]: 6.36 ± 0.23 h | total protein half-life in vivo [2]: 5.96 ± 0.43 h | total protein half-life in vivo [3]: 6.35 ± 0.93 h | total protein half-life in vivo [4]: 6.05 ± 1.2 h | total protein half-life in vivo [5]: 5.8 ± 0.066 h | total protein half-life in vivo [6]: 3.45 ± 0.058 h | total protein half-life in vivo [7]: 5.985 ± 0.046 h | total protein half-life in vivo [8]: 10.5 ± 1.6 h | total protein half-life in vivo [9]: 13.1 ± 0.83 h | total protein half-life in vivo [10]: 6.32 ± 0.066 h | total protein half-life in vivo [11]: 11.4 ± 0.16 h

MTPDELARLTGYSRQTINKWVRKEGWTTSPKPGVQGGKARLVHVNEQVREYIRNAERPEGQGEAPALSGDAPLEVLLVTLAKEMTPVEQKQFTSLLLREGIIGLLQRLGIRDSK [P0AD37]
total protein half-life in vivo [6]: 1.89 h

MTPFMTEDFLLDTEFARRLYHDYAKDQPIFDYHCHLPPQQIAEDYRFKNLYDIWLKGDHYKWRAMRTNGVAERLCTGDASDREKFDAWAATVPHTIGNPLYHWTHLELRRPFGITGKLLSPSTADEIWNECNELLAQDNFSARGIMQQMNVKMVGTTDDPIDSLEHHAEIAKDGSFTIKVLPSWRPDKAFNIEQATFNDYMAKLGEVSDTDIRRFADLQTALTKRLDHFAAHGCKVSDHALDVVMFAEANEAELDSILARRLAGETLSEHEVAQFKTAVLVFLGAEYARRGWVQQYHIGALRNNNLRQFKLLGPDVGFDSINDRPMAEELSKLLSKQNEENLLPKTILYCLNPRDNEVLGTMIGNFQGEGMPGKMQFGSGWWFNDQKDGMERQMTQLAQLGLLSRFVGMLTDSRSFLSYTRHEYFRRILCQMIGRWVEAGEAPADINLLGEMVKNICFNNARDYFAIELN [P0A8G3]
total protein half-life in vivo [1]: 4.91 ± 0.32 h | total protein half-life in vivo [2]: 4.13 ± 0.56 h | total protein half-life in vivo [3]: 4.83 ± 1.5 h | total protein half-life in vivo [4]: 4.12 ± 0.18 h | total protein half-life in vivo [5]: 3.84 ± 0.12 h | total protein half-life in vivo [6]: 2.87 ± 0.56 h | total protein half-life in vivo [7]: 5.94 ± 0.12 h | total protein half-life in vivo [8]: 11.9 ± 0.95 h | total protein half-life in vivo [12]: 4.02 ± 0.48 h | total protein half-life in vivo [9]: 6.3 ± 0.21 h | total protein half-life in vivo [10]: 5.26 ± 0.087 h | total protein half-life in vivo [11]: 9.95 ± 0.88 h

MTPGGQAQIGNVDLVKQLNSAAVYRLIDQYGPISRIQIAEQSQLAPASVTKITRQLIERGLIKEVDQQASTGGRRAISIVTETRNFHAIGVRLGRHDATITLFDLSSKVLAEEHYPLPERTQQTLEHALLNAIAQFIDSYQRKLRELIAISVILPGLVDPDSGKIHYMPHIQVENWGLVEALEERFKVTCFVGHDIRSLALAEHYFGASQDCEDSILVRVHRGTGAGIISNGRIFIGRNGNVGEIGHIQVEPLGERCHCGNFGCLETIAANAAIEQRVLNLLKQGYQSRVPLDDCTIKTICKAANKGDSLASEVIEYVGRHLGKTIAIAINLFNPQKIVIAGEITEADKVLLPAIESCINTQALKAFRTNLPVVRSELDHRSAIGAFALVKRAMLNGILLQHLLEN [P0AF20]
total protein half-life in vivo [1]: 5.96 ± 0.13 h | total protein half-life in vivo [2]: 6.14 ± 0.17 h | total protein half-life in vivo [3]: 5.92 ± 0.068 h | total protein half-life in vivo [4]: 6.27 ± 0.59 h | total protein half-life in vivo [5]: 5.92 ± 1.2 h | total protein half-life in vivo [6]: 2.98 ± 0.067 h | total protein half-life in vivo [7]: 6.44 ± 0.24 h | total protein half-life in vivo [8]: 11.3 ± 1.7 h | total protein half-life in vivo [12]: 5.9 ± 0.28 h | total protein half-life in vivo [9]: 13 ± 0.3 h | total protein half-life in vivo [10]: 6.58 ± 0.7 h | total protein half-life in vivo [11]: 15.1 ± 0.32 h

MTPHVMKRDGCKVPFKSERIKEAILRAAKAAEVDDADYCATVAAVVSEQMQGRNQVDINEIQTAVENQLMSGPYKQLARAYIEYRHDRDIEREKRGRLNQEIRGLVEQTNASLLNENANKDSKVIPTQRDLLAGIVAKHYARQHLLPRDVVQAHERGDIHYHDLDYSPFFPMFNCMLIDLKGMLTQGFKMGNAEIEPPKSISTATAVTAQIIAQVASHIYGGTTINRIDEVLAPFVTASYNKHRKTAEEWNIPDAEGYANSRTIKECYDAFQSLEYEVNTLHTANGQTPFVTFGFGLGTSWESRLIQESILRNRIAGLGKNRKTAVFPKLVFAIRDGLNHKKGDPNYDIKQLALECASKRMYPDILNYDQVVKVTGSFKTPMGCRSFLGVWENENGEQIHDGRNNLGVISLNLPRIALEAKGDEATFWKLLDERLVLARKALMTRIARLEGVKARVAPILYMEGACGVRLNADDDVSEIFKNGRASISLGYIGIHETINALFGGEHVYDNEQLRAKGIAIVERLRQAVDQWKEETGYGFSLYSTPSENLCDRFCRLDTAEFGVVPGVTDKGYYTNSFHLDVEKKVNPYDKIDFEAPYPPLANGGFICYGEYPNIQHNLKALEDVWDYSYQHVPYYGTNTPIDECYECGFTGEFECTSKGFTCPKCGNHDASRVSVTRRVCGYLGSPDARPFNAGKQEEVKRRVKHLGNGQIG
total protein half-life in vivo [1]: 2.17 ± 0.33 h | total protein half-life in vivo [2]: 1.045 ± 0.0046 h | total protein half-life in vivo [3]: 0.844 ± 0.15 h | total protein half-life in vivo [4]: 1.02 ± 0.11 h | total protein half-life in vivo [5]: 0.762 ± 0.051 h | total protein half-life in vivo [6]: 2.63 ± 0.5 h | total protein half-life in vivo [7]: 2 ± 0.24 h | total protein half-life in vivo [8]: 2.72 ± 0.57 h | total protein half-life in vivo [12]: 1.67 ± 0.91 h | total protein half-life in vivo [9]: 1.49 ± 0.42 h | total protein half-life in vivo [10]: 2.99 ± 0.31 h | total protein half-life in vivo [11]: 4.91 ± 0.075 h

MTPTIELICGHRSIRHFTDEPISEAQREAIINSARATSSSSFLQCSSIIRITDKALREELVTLTGGQKHVAQAAEFWVFCADFNRHLQICPDAQLGLAEQLLLGVVDTAMMAQNALIAAESLGLGGVYIGGLRNNIEAVTKLLKLPQHVLPLFGLCLGWPADNPDLKPRLPASILVHENSYQPLDKGALAQYDEQLAEYYLTRGSNNRRDTWSDHIRRTIIKESRPFILDYLHKQGWATR
total protein half-life in vivo [1]: 4.82 ± 1 h | total protein half-life in vivo [2]: 3.94 ± 0.13 h | total protein half-life in vivo [3]: 4.1 ± 0.27 h | total protein half-life in vivo [4]: 4.4 ± 0.54 h | total protein half-life in vivo [5]: 3.98 ± 0.23 h | total protein half-life in vivo [6]: 2.93 ± 0.35 h | total protein half-life in vivo [7]: 4.8 ± 0.82 h | total protein half-life in vivo [8]: 9.24 ± 0.9 h | total protein half-life in vivo [12]: 3.89 ± 0.47 h | total protein half-life in vivo [9]: 7.96 ± 0.79 h | total protein half-life in vivo [10]: 5.01 ± 0.35 h | total protein half-life in vivo [11]: 9.93 ± 2.7 h

MTQFASPVLHSLLDTDAYKLHMQQAVFHHYYDVHVAAEFRCRGDDLLGIYADAIREQVQAMQHLRLQDDEYQWLSALPFFKADYLNWLREFRFNPEQVTVSNDNGKLDIRLSGPWREVILWEVPLLAVISEMVHRYRSPQADVAQALDTLESKLVDFSALTAGLDMSRFHLMDFGTRRRFSREVQETIVKRLQQESWFVGTSNYDLARRLSLTPMGTQAHEWFQAHQQISPDLANSQRAALAAWLEEYPDQLGIALTDCITMDAFLRDFGVEFASRYQGLRHDSGDPVEWGEKAIAHYEKLGIDPQSKTLVFSDNLDLRKAVELYRHFSSRVQLSFGIGTRLTCDIPQVKPLNIVIKLVECNGKPVAKLSDSPGKTICHDKAFVRALRKAFDLPHIKKAS
total protein half-life in vivo [1]: 4.31 ± 1.6 h | total protein half-life in vivo [2]: 3.07 ± 0.44 h | total protein half-life in vivo [3]: 2.98 ± 0.068 h | total protein half-life in vivo [4]: 4.11 ± 0.88 h | total protein half-life in vivo [5]: 2.95 ± 0.13 h | total protein half-life in vivo [6]: 2.28 ± 0.31 h | total protein half-life in vivo [7]: 4.04 ± 0.27 h | total protein half-life in vivo [8]: 5.56 ± 0.35 h | total protein half-life in vivo [12]: 2.92 ± 0.065 h | total protein half-life in vivo [9]: 4.49 ± 0.41 h | total protein half-life in vivo [10]: 3.57 ± 0.071 h | total protein half-life in vivo [11]: 5.37 ± 1 h
